This note sets out measurements from article PMC11043367.

For test [1], the target named is human parechovirus 1 (PeV-A1) particles, Harris strain. In words: co-immunoprecipitation with anti-HA beads, RT-qPCR of viral RNA. The settings on record: IP, read off a plot.
In test [2] the target is T1, Flag-tagged PeV-A1 virus particles.
T1 chain 1: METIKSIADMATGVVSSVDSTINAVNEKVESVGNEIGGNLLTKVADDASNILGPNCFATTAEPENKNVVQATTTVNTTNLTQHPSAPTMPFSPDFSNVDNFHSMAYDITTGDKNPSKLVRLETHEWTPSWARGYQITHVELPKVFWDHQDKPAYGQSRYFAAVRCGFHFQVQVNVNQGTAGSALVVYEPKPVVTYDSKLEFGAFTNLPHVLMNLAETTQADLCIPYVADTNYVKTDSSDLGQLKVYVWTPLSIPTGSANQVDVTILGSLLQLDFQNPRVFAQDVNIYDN
T1 chain 2: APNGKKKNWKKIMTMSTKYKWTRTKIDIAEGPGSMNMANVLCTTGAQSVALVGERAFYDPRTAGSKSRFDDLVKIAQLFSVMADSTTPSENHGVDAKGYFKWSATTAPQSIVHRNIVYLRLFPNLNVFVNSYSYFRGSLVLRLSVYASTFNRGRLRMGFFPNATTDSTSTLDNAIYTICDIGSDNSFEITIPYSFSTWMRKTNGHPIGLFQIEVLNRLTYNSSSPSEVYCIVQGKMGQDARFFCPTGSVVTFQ
T1 chain 3: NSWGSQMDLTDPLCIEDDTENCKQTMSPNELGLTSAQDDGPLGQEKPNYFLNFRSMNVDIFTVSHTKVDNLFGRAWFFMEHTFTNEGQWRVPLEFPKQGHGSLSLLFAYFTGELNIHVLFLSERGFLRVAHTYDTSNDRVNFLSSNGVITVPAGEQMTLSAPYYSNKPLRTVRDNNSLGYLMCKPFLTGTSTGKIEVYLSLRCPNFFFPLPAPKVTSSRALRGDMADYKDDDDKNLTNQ
In words: pH-dependent virus particle binding assay (anti-HA immunoprecipitation), RT-qPCR of viral RNA. The settings on record: chain shown with the change, read off a plot.

Regarding “human MYADM (myeloid-associated differentiation marker), HA-tagged (from UniProt Q96S97) D276E; V277H; S278N”, the response (relative to Vero) in test [1] (0 min after infection, parent: est. 25) is 5; in test [1] (15 min after infection, 37 °C, parent: est. 52) it was 1.5; in test [1] (30 min after infection, 37 °C, parent: est. 60), 5.

B1: human MYADM (myeloid-associated differentiation marker), HA-tagged, Q96S97 D276E; V277H; S278N (protein)
chain: MPVTVTRTTITTTTTSSSGLGSPMIVGSPRALTQPLGLLRLLQLVSTCVAFSLVASVGAWTGSMGNWSMFTWCFCFSVTLIILIVELCGLQARFPLSWRNFPITFACYAALFCLSASIIYPTTYVQFLSHGRSRDHAIAATFFSCIACVAYATEVAWTRARPGEITGYMATVPGLLKVLETFVACIIFAFISDPNLYQHQPALEWCVAVYAICFILAAIAILLNLGECTNVLPIPFPSFLSGLALLSVLLYATALVLWPLYQFDEKYGGQPRRSREHNCSRSHAYYVCAWDRRLAVAILTAINLLAYVADLVHSAHLVFVKV
As to B1, the response (relative to Vero) in test [2] (virus particle IP buffer pH 5.5, parent: est. 3.0) came to 1; in test [2] (virus particle IP buffer pH 6.0, parent: est. 6.2), 1; in test [2] (virus particle IP buffer pH 6.5, parent: est. 5.3) it was 1; in test [2] (virus particle IP buffer pH 7.4, parent: est. 1.1), 1.1.
